# Values of other authors as cited in US20230279355A1, “METHOD FOR THE IN VITRO OR EX VIVO AMPLIFICATION OF STEM CELLS OF BROWN OR BEIGE ADIPOCYTES” (CENTRE NATIONAL DE LA RECHERCHE SCIENTIFIQUE, priority 2020, published 2023).
# B1: Epidermal Growth Factor (protein, UniProt P01133 23-1207, looked up)
# Pro-epidermal growth factor: PQHWSCPEGTLAGNGNSTCVGPAPFLIFSHGNSIFRIDTEGTNYEQLVVDAGVSVIMDFHYNEKRIYWVDLERQLLQRVFLNGSRQERVCNIEKNVSGMAINWINEEVIWSNQQEGIITVTDMKGNNSHILLSALKYPANVAVDPVERFIFWSSEVAGSLYRADLDGVGVKALLETSEKITAVSLDVLDKRLFWIQYNREGSNSLICSCDYDGGSVHISKHPTQHNLFAMSLFGDRIFYSTWKMKTIWIANKHTGKDMVRINLHSSFVPLGELKVVHPLAQPKAEDDTWEPEQKLCKLRKGNCSSTVCGQDLQSHLCMCAEGYALSRDRKYCEDVNECAFWNHGCTLGCKNTPGSYYCTCPVGFVLLPDGKRCHQLVSCPRNVSECSHDCVLTSEGPLCFCPEGSVLERDGKTCSGCSSPDNGGCSQLCVPLSPVSWECDCFPGYDLQLDEKSCAASGPQPFLLFANSQDIRHMHFDGTDYGTLLSQQMGMVYALDHDPVENKIYFAHTALKWIERANMDGSQRERLIEEGVDVPEGLAVDWIGRRFYWTDRGKSLIGRSDLNGKRSKIITKENISQPRGIAVHPMAKRLFWTDTGINPRIESSSLQGLGRLVIASSDLIWPSGITIDFLTDKLYWCDAKQSVIEMANLDGSKRRRLTQNDVGHPFAVAVFEDYVWFSDWAMPSVMRVNKRTGKDRVRLQGSMLKPSSLVVVHPLAKPGADPCLYQNGGCEHICKKRLGTAWCSCREGFMKASDGKTCLALDGHQLLAGGEVDLKNQVTPLDILSKTRVSEDNITESQHMLVAEIMVSDQDDCAPVGCSMYARCISEGEDATCQCLKGFAGDGKLCSDIDECEMGVPVCPPASSKCINTEGGYVCRCSEGYQGDGIHCLDIDECQLGEHSCGENASCTNTEGGYTCMCAGRLSEPGLICPDSTPPPHLREDDHHYSVRNSDSECPLSHDGYCLHDGVCMYIEALDKYACNCVVGYIGERCQYRDLKWWELRHAGHGQQQKVIVVAVCVVVLVMLLLLSLWGAHYYRTQKLLSKNPKNPYEESSRDVRSRRPADTEDGMSSCPQPWFVVIKEHQDLKNGGQPVAGEDGQAADGSMQPTSWRQEPQLCGMGTEQGCWIPVSSDKGSCPQVMERSFHMPSYGTQTLEGGVEKPHSLLSANPLWQQRALDPPHQMELTQ
# modifications: Pro-epidermal growth factor
# Tested on: UCP1
# Settings: described in the literature
molecule,measurement,value
B1,expression of UCP1,able to inhibit the expression of UCP1
